Laboratory results published in PMC6058786 (Haematologica, 2018).
One block for each binder: values may come before it.

What was measured:
purified Pin1 WW-domain [1] = molecular target: T1, purified Pin1 WW-domain (UniProt Q13526 5-39); assay: ITC
purified Pin1 WW-domain [2] = molecular target: T1, purified Pin1 WW-domain; assay: NMR titration
purified Pin1 WW-domain [3] = molecular target: T1, purified Pin1 WW-domain; assay: ITC; remark: listed apart in the source

T1 sequence (Q13526 5-39): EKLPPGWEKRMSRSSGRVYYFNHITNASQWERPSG

Kd (purified Pin1 WW-domain [1]): ~137 µM
Binder: HKCRKAGVGQSWKENSPLNVS (not fully specified; phosphoserine at 258) [Ser258-phosphorylated TFCD-encoding peptide (ITC)]

Kd (purified Pin1 WW-domain [2]): 133 ± 13 µM
Binder: HKCRKAGVGQSWKENSPLNVS (not fully specified; phosphoserine at 253; phosphoserine at 258) [double phosphorylated pSer253/pSer258 TFCD peptide]

Kd (purified Pin1 WW-domain [3]): 1530 µM
Binder: HKCRKAGVGQSWKENSPLNVS [unphosphorylated TFCD (ITC)]
